Substitutions are numbered along the chain they refer to.
B1: Q-SBL-127 (antibody)
chain 1: not shown
chain 2: not shown
chain 3: EVQLVESGGGLVQPGGSLRLSCAASGYTFTNYGMNWVRQAPGKGLEWVGWINTYTGEPTYAADFKRRFTFSLDTSKSTAYLQMNSLRAEDTAVYYCAKYPHYYGSSHWYFDVWGQGTLVTVSSASTKGPSVFPLAPSSKSTSGGTAALGCLVKDYFPEPVTVSWNSGALTSGVHTFPAVLQSSGLYSLSSVVTVPSSSLGTQTYICNVNHKPSNTKVDKKVEPKSCDKTHTCPPCPAPELLGGPSVFLFPPKPKDTLMISRTPEVTCVVVDVSHEDPEVKFNWYVDGVEVHNAKTKPREEQYNSTYRVVSVLTVLHQDWLNGKEYKCKVSNKALPAPIEKTISKAKGQPREPQVCTLPPSREEMTKNQVSLWCLVKGFYPSDIAVEWESNGQPENNYKTTPPVLFSDGSFFLYSKLTVDKSRWQQGNVFSCSVMHEALHNHYTQKSLSLSPGK
chain 4: not shown
B2: Q-SBL-113 (antibody)
chain 1: not shown
chain 2: not shown
chain 3: B1 chain 3 with E362R, F405D
chain 4: not shown
B3: Q-SBL-137 (antibody)
chain 1: not shown
chain 2: not shown
chain 3: B1 chain 3 with F405D, K415S
chain 4: not shown
B4: Q-SBL-112 (antibody)
chain 1: not shown
chain 2: not shown
chain 3: B1 chain 3 with E362R, F405D
chain 4: not shown
B5: Q-SBL-129 (antibody)
chain 1: not shown
chain 2: not shown
chain 3: B1 chain 3
chain 4: not shown
B6: Q-SBL-130 (antibody)
chain 1: not shown
chain 2: not shown
chain 3: B1 chain 3
chain 4: not shown
B7: Q-SBL-131 (antibody)
chain 1: not shown
chain 2: not shown
chain 3: B1 chain 3
chain 4: not shown
B8: Q-SBL-116 (antibody)
chain 1: not shown
chain 2: not shown
chain 3: B1 chain 3 with E362K, F405D
chain 4: not shown
B9: Q-SBL-109 (antibody)
chain 1: not shown
chain 2: not shown
chain 3: B1 chain 3 with E362R, F405D
chain 4: not shown
B10: Q-SBL-110 (antibody)
chain 1: not shown
chain 2: not shown
chain 3: B1 chain 3 with E362R, F405D
chain 4: not shown
B11: Q-SBL-102 (antibody)
chain 1: not shown
chain 2: not shown
chain 3: B1 chain 3 with F405H
chain 4: not shown

How the values were obtained:
FcγRIIa = target: T1, FcγRIIa (human, UniProt P12318); test: BLI
T1 chain: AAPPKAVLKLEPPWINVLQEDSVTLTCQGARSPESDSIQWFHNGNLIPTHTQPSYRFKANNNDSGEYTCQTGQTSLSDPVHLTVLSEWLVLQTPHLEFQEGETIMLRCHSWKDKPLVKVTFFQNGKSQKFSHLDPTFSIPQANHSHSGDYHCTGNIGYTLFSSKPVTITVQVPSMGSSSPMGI

FcRn = FcRn (human, UniProt P55899); test: BLI
FcRn, sequence (P55899 24-297, chain 1 of 2): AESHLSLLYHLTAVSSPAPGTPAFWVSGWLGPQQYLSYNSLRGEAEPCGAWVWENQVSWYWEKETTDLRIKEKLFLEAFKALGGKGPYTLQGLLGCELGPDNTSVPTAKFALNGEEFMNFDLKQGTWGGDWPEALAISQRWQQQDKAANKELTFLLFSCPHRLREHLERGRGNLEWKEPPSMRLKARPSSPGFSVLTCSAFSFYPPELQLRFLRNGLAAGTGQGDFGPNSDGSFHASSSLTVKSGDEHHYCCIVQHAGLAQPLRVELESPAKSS
FcRn, sequence (chain, as listed by the source, chain 2 of 2): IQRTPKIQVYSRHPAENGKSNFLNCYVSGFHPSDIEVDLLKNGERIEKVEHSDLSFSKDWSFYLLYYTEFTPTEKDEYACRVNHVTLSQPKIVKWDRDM

FcγRIIIa = FcγRIIIa (human, UniProt P08637); test: BLI
FcγRIIIa, sequence (P08637 17-208): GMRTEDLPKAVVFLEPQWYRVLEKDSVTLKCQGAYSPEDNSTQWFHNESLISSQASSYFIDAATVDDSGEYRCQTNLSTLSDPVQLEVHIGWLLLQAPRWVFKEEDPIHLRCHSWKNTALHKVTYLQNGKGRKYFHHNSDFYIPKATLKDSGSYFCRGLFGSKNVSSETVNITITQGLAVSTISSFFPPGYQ

C1q = C1q (human, UniProt P02745); test: BLI
C1q, sequence (P02745 23-245, chain 1 of 3): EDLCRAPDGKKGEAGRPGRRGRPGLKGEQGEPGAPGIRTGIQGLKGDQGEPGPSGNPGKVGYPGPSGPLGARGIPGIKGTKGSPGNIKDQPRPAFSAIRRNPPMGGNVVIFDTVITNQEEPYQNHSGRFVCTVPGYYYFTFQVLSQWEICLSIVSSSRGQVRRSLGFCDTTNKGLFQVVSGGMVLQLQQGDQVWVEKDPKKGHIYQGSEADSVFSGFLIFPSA
C1q, sequence (P02746 28-253, chain 2 of 3, further chain): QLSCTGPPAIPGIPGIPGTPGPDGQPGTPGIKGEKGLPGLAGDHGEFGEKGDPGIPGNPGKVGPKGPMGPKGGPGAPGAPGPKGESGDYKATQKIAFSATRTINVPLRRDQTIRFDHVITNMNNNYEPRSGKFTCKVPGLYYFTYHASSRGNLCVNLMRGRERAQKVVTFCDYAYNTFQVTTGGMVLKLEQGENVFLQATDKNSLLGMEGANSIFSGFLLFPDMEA
C1q, sequence (P02747 29-245, chain 3 of 3, further chain): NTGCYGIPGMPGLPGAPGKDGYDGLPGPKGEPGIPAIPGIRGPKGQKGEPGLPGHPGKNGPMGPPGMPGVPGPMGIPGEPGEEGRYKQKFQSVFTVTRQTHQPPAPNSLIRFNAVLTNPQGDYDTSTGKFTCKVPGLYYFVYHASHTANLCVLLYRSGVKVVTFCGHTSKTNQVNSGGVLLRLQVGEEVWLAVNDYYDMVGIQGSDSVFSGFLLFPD

VEGF165 = target: T2, VEGF165 (human, UniProt P15692); test: ELISA
T2 chain: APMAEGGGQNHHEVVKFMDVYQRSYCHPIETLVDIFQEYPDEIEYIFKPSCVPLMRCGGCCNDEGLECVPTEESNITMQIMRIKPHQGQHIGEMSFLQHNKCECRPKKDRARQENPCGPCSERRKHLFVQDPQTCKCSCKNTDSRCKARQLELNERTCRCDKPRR

| Binder | Kd (FcγRIIa) [nM] | Kd (FcRn) [nM] | Kd (FcγRIIIa) [nM] | Kd (C1q) [nM] | EC50 (VEGF165) [nM] |
| --- | --- | --- | --- | --- | --- |
| B1 | 1630 | 750 | 230 | 18 |  |
| B2 | 2140 | 690 | 600 | 36 | 0.154 |
| B3 | 2120 | 580 | 380 | 24 |  |
| B4 | 2020 | 720 | 600 | 32 | 0.149 |
| B5 | 1670 | 700 | 290 | 16 | 0.17 |
| B6 | 1720 | 740 | 290 | 17 |  |
| B7 | 1620 | 670 | 330 | 16 |  |
| B8 | 2340 | 650 | 370 | 33 |  |
| B9 | 2200 | 640 | 340 | 28 |  |
| B10 | 2290 | 610 | 570 |  | 0.168 |
| B11 | 1700 | 710 | 420 | 40 |  |

From patent publication US20260365755 (published 2026)
